± gives the standard deviation of the averaged measurements.
What was measured:
MCF7 = assay: percentage of EdU-negative (G0-arrested) nuclei per well, 72 h; higher = more G0 arrest; conditions: reference: sequence is the full UniProt precursor, the tested protein was the secreted form or ectodomain
hTERT-HMEC = assay: as above; conditions: reference: sequence is the full UniProt precursor, the tested protein was the secreted form or ectodomain
[1] = protein concentration 0.02778 µM
[2] = protein concentration 0.2778 µM
[3] = protein concentration 0.021155 µM
[4] = protein concentration 0.21155 µM
[5] = protein concentration 0.0225 µM
[6] = protein concentration 0.03125 µM
[7] = protein concentration 0.3125 µM
[8] = protein concentration 0.0135 µM
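Further: secreted proteins added to cultured cells, EdU pulse at the end, nuclei found by Hoechst imaging, EdU status from nuclear versus surrounding ring intensity ratio, PBS as neutral control.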

Sequence | percentage of EdU-negative (MCF7; [5]) | percentage of EdU-negative (MCF7; protein concentration 0.225 µM) | percentage of EdU-negative (hTERT-HMEC; [5]) | percentage of EdU-negative (hTERT-HMEC; protein concentration 0.225 µM) | also measured
MSRPQLRRWRLVSSPPSGVPGLALLALLALLALRLAAGTDCPCPEPELCRPIRHHPDFEVFVFDVGQKTWKSYDWSQITTVATFGKYDSELMCYAHSKGARVVLKGDVSLKDIIDPAFRASWIAQKLNLAKTQYMDGINIDIEQEVNCLSPEYDALTALVKETTDSFHREIEGSQVTFDVAWSPKNIDRRCYNYTGIADACDFLFVMSYDEQSQIWSECIAAANAPYNQTLTGYNDYIKMSINPKKLVMGVPWYGYDYTCLNLSEDHVCTIAKVPFRGAPCSDAAGRQVPYKTIMKQINSSISGNLWDKDQRAPYYNYKDPAGHFHQVWYDNPQSISLKATYIQNYRLRGIGMWNANCLDYSGDAVAKQQTEEMWEVLKPKLLQR |  |  |  |  | percentage of EdU-negative (MCF7; [1]): 25.1 ± 3.2%; percentage of EdU-negative (MCF7; [2]): 24.6 ± 1.1%; percentage of EdU-negative (hTERT-HMEC; [1]): 5.6 ± 0.68%; percentage of EdU-negative (hTERT-HMEC; [2]): 6.64 ± 0.1%
MSRQLLPVLLLLLLRASCPWGQEQGARSPSEEPPEEEIPKEDGILVLSRHTLGLALREHPALLVEFYAPWCGHCQALAPEYSKAAAVLAAESMVVTLAKVDGPAQRELAEEFGVTEYPTLKFFRNGNRTHPEEYTGPRDAEGIAEWLRRRVGPSAMRLEDEAAAQALIGGRDLVVIGFFQDLQDEDVATFLALAQDALDMTFGLTDRPRLFQQFGLTKDTVVLFKKFDEGRADFPVDEELGLDLGDLSRFLVTHSMRLVTEFNSQTSAKIFAARILNHLLLFVNQTLAAHRELLAGFGEAAPRFRGQVLFVVVDVAADNEHVLQYFGLKAEAAPTLRLVNLETTKKYAPVDGGPVTAASITAFCHAVLNGQVKPYLLSQEIPPDWDQRPVKTLVGKNFEQVAFDETKNVFVKFYAPWCTHCKEMAPAWEALAEKYQDHEDIIIAELDATANELDAFAVHGFPTLKYFPAGPGRKVIEYKSTRDLETFSKFLDNGGVLPTEEPPEEPAAPFPEPPANSTMGSKEEL |  |  |  |  | percentage of EdU-negative (MCF7; [3]): 34 ± 1.9%; percentage of EdU-negative (MCF7; [4]): 26.76 ± 0.05%; percentage of EdU-negative (hTERT-HMEC; [3]): 5.52 ± 0.95%; percentage of EdU-negative (hTERT-HMEC; [4]): 5.36 ± 0.59%
MSRREGSLEDPQTDSSVSLLPHLEAKIRQTHSLAHLLTKYAEQLLQEYVQLQGDPFGLPSFSPPRLPVAGLSAPAPSHAGLPVHERLRLDAAALAALPPLLDAVCRRQAELNPRAPRLLRRLEDAARQARALGAAVEALLAALGAANRGPRAEPPAATASAASATGVFPAKVLGLRVCGLYREWLSRTEGDLGQLLPGGSA | 25.7 ± 2.9% | 26.5 ± 1.6% | 4.52 ± 0.57% | 6.17 ± 0.093% | 
MSSAAGFCASRPGLLFLGLLLLPLVVAFASAEAEEDGDLQCLCVKTTSQVRPRHITSLEVIKAGPHCPTAQLIATLKNGRKICLDLQAPLYKKIIKKLLES |  |  |  |  | percentage of EdU-negative (MCF7; [6]): 23.9 ± 0.55%; percentage of EdU-negative (MCF7; [7]): 26.1 ± 3.4%; percentage of EdU-negative (hTERT-HMEC; [6]): 5.71 ± 0.5%; percentage of EdU-negative (hTERT-HMEC; [7]): 5.011 ± 0.0019%
MSSAARSRLTRATRQEMLFLALLLLPVVVAFARAEAEEDGDLQCLCVKTTSQVRPRHITSLEVIKAGPHCPTAQLIATLKNGRKICLDLQALLYKKIIKEHLES | 25.1 ± 0.73% | 24.9 ± 0.32% | 5.03 ± 0.052% | 5.8 ± 0.41% | 
MSSEEGKLFVGGLNFNTDEQALEDHFSSFGPISEVVVVKDRETQRSRGFGFITFTNPEHASVAMRAMNGESLDGRQIRVDHAGKSARGTRGGGFGAHGRGRSYSRGGGDQGYGSGRYYDSRPGGYGYGYGRSRDYNGRNQGGYDRYSGGNYRDNYDN |  |  |  |  | percentage of EdU-negative (MCF7; [8]): 25.1 ± 3.6%; percentage of EdU-negative (MCF7; protein concentration 0.135 µM): 27 ± 1.7%; percentage of EdU-negative (hTERT-HMEC; [8]): 5 ± 0.36%; percentage of EdU-negative (hTERT-HMEC; protein concentration 0.135 µM): 8.05 ± 0.55%
MSSENCFVAENSSLHPESGQENDATSPHFSTRHEGSFQVPVLCAVMNVVFITILIIALIALSVGQYNCPGQYTFSMPSDSHVSSCSEDWVGYQRKCYFISTVKRSWTSAQNACSEHGATLAVIDSEKDMNFLKRYAGREEHWVGLKKEPGHPWKWSNGKEFNNWFNVTGSDKCVFLKNTEVSSMECEKNLYWICNKPYK | 23.5 ± 0.69% | 23.6 ± 0.57% | 5.44 ± 1.4% | 5.3 ± 0.56% | 
MSSFGYRTLTVALFTLICCPGSDEKVFEVHVRPKKLAVEPKGSLEVNCSTTCNQPEVGGLETSLDKILLDEQAQWKHYLVSNISHDTVLQCHFTCSGKQESMNSNVSVYQPPRQVILTLQPTLVAVGKSFTIECRVPTVEPLDSLTLFLFRGNETLHYETFGKAAPAPQEATATFNSTADREDGHRNFSCLAVLDLMSRGGNIFHKHSAPKMLEIYEPVSDSQMVIIVTVVSVLLSLFVTSVLLCFIFGQHLRQQRMGTYGVRAAWRRLPQAFRP | 24.9 ± 0.91% | 27.28 ± 0.18% | 5.54 ± 0.21% | 6.02 ± 0.093% | 
MSSFSTTTVSFLLLLAFQLLGQTRANPMYNAVSNADLMDFKNLLDHLEEKMPLEDEVVPPQVLSEPNEEAGAALSPLPEVPPWTGEVSPAQRDGGALGRGPWDSSDRSALLKSKLRALLTAPRSLRRSSCFGGRMDRIGAQSGLGCNSFRY | 25 ± 2.1% | 25.7 ± 1.1% | 4.9 ± 0.49% | 6.92 ± 0.56% | 
MSSSCSGLSRVLVAVATALVSASSPCPQAWGPPGVQYGQPGRSVKLCCPGVTAGDPVSWFRDGEPKLLQGPDSGLGHELVLAQADSTDEGTYICQTLDGALGGTVTLQLGYPPARPVVSCQAADYENFSCTWSPSQISGLPTRYLTSYRKKTVLGADSQRRSPSTGPWPCPQDPLGAARCVVHGAEFWSQYRINVTEVNPLGASTRLLDVSLQSILRPDPPQGLRVESVPGYPRRLRASWTYPASWPCQPHFLLKFRLQYRPAQHPAWSTVEPAGLEEVITDAVAGLPHAVRVSARDFLDAGTWSTWSPEAWGTPSTGTIPKEIPAWGQLHTQPEVEPQVDSPAPPRPSLQPHPRLLDHRDSVEQVAVLASLGILSFLGLVAGALALGLWLRLRRGGKDGSPKPGFLASVIPVDRRPGAPNL |  |  |  |  | percentage of EdU-negative (MCF7; [6]): 26.9 ± 2%; percentage of EdU-negative (MCF7; [7]): 36.6 ± 0.72%; percentage of EdU-negative (hTERT-HMEC; [6]): 4.53 ± 0.46%; percentage of EdU-negative (hTERT-HMEC; [7]): 11.8 ± 0.14%

From the supplement of paper PMC11316812
